Measured values published in a protein production outcome set (Wang et al. 2014).

Assay: label from the status in PepcDB records

Sequence: MRDSFGDWAEKFLKSKEADGVSVSQLNSYKNYCRNHLSPLYMKSLSEILPADIQSIINETKLAKNTLKAIRNTASQIFRLAIENRAIDFNPADYVRIPKIALEHHHHHH
- protein production: not failed

Sequence: MREGLRVLNSCNKVRGIFTLTQKTIKTFCFILAILVLIIFAVVFHNHSLEIIDYIDDLGWLAPVLFLITYCLATLLLLPTMVLTLAGGAVFGPVFGTLLNLLGATSGAALAFLITRHLVYDWFSTKKGEKLNKLIAGVDEKGWVFVAFLRLFPIVPFNLVNYGLGVTGISFRLYLLTTFIFLIPAEIIYTYFGYVGMDALTRPGHLYRNGGIFLTGLAIFFLLVIRIMKKR
- protein production: failed

Sequence: MREIPLVSVALATYNGERYLRRQLDSVLAQTYRNIEIVVSDDCSRDGTVAILEEYRRAHGITFRVNERNLGFVRNFERALAGCRGEFIALSDQDDIWLPEKIETLVREIGPHSLIYTDALLIDGDDQPLPGSLVEVSGVRPVSGTCFEYFVCNNCVTGCTAMLRRDLLATALPIPEAETYHDWWLAVAASRRNGVVYHAAKLTEYRQHAHNYTGANVRAGLPARIAAHLMGKTAAEKRGYYELLANRARRYRAMADRLNLTPAERSFLEEIGEYAESLLSGGNRMKTFALALKYRETLFPAAGRWEKLLFVFSKLIAARAILEHHHHHH
- protein production: not failed

Sequence: MRELLVFLHILSAATWIGAALWVPGDVKRTVALGRPFVEQLAARARPALKLDLYAGFAVLVTGVLLIGVDGGHPRTGILVGFAATLARLLVVGFASMPAWRRVEGAVASGDLAAATAPARRLAMLGGIGHALWAIALAGMVF
- protein production: failed

Sequence: MRELNRLSEEITHILAAGEVVERPASCLKEVIENSIDAGASLIDIKLEKGGIKKIEVYDNGKGIHSDDIEYVFERHTTSKIKSVDDIFKITTMGFRGEALCAISSVSKVTLISRHYEQEQGCKVEVEGGKVLSKTIYPFEKGTRITIEDLFYNTPARLKFLKSPSAEQKYCIEVVEKIAICYPEISFRMQVDNKRQLFTPGDSKVESAIASVFGSEILKNLIDFSHQEEGLKVWGFFVNPVLSKSTRSGYHFYVNRRFIRSKLLSTCIDEAFKNSILTGRFPIVFLFIEINPIDIDVNVHPAKLEIKFKDERYVYNTVYKTVSSTLQSEKMIPKPTLDNLYLPQSVQDVKMVRNLWSYTQEQQSKEKAFQEDFNEFLKIEEQLDFSKVEVGKESKDVITVFSEEFNVETYKIVGYAFDTYIIVQKEDSLYLIDQHAVHERRLFELLKEEIFRNKIQRQILLSPIVIELPISQKEFALENVHIFEKLGFEIDDFGKNEIVVRTYPLLFEGAVDKFFILDIIEMIYNESVEKGITHFSEELLKKIACRAAVKGNMNISDLEKEEIVKLVLVEKKIFNCPHGRPVVIEIQKREIEKMFKRIV
- protein production: failed

Sequence: MRERTEARRRRIEEVLRRRQPDLTVLLENVHKPHNLSAILRTCDAVGVLEAHAVNPTGGVPTFNETSGGSHKWVYLRVHPDLHEAFRFLKERGFTVYATALREDARDFREVDYTKPTAVLFGAEKWGVSEEALALADGAIKIPMLGMVQSLNVSVAAAVILFEAQRQRLKAGLYDRPRLDPELYQKVLADWLRK
- protein production: not failed

Sequence: MREVNEGASAYPGQRATGESIERGGGGLSVSDLLAKVMTAAAPQPTGSGTESGPGAGPTAGPSLDVDGLAVAVAATAGRYLPGGHLSPDSDFFDAGGTSVHAVELVAELERELGMEIALDDVFADARPRTLARRWLSAGGAPAAHSATPATPEPTAAGVAATGVTAIGATAAGAAVAGATAAGVAATPGLLPLSAAGTRPAPAPSGLPVPSPRTPPAVAATPPPGSGDAPYSTARREDLDQILADLALADRLPWTGAPEPLPPRRILLTGATGFLGSHMLLDLLRHSDAHVYCLVRAADEEAATARLGQALKGYELPWSSEVRRRVTVLPGDIRHPRLGLSDDLWNTLAHELDSVVGVAAAVDFLRGYPSLRQSNVLGALTLAELAATGRPKPLHHISSIAVFNEVGITAMGEDDPLARVDRLVAGYDQTKWTAEVALRRARDHGLLVTAMRPGGIGGHTRTGAYNPQDLSSGLISAFGRFRTVPAFRYLNAAPVDWVSRVAVGVICEPDAWGYDYNLTGVPNTLDDVVQDMALGGMHVRVQDWDEWRTDALARLEADPVPELAFLTRVLRSPTALKLCEATLKGPAAHDDRTAALVEALGLGPAARYDAQAQLRTFERLARDGLARLPHKDDQPYLWFSERTEGGVGPVGAPADTPCSMALTLSIASMYQLVKERRVDVSGELVCAAVHPEPLTVERGDVWIRPEEGIPEQHGMRHQLLRYRLELRDTDGGHWWLEGHKYARARRDVWRQTRALTVEIGRAGEPARLTGEVVVPADSYVRDQIDGIKVDPRLTSQEKRAAKLTWLAWFGLEVGRGLLGPFARVAADLLDLRRNPTLTERNR
- protein production: failed

Sequence: MREVSLRIDRYLVNTRITPNQLTYLMTVCGVLAAPALLVPGIWGAVLGVVAVQLYLLLDCVDGEIARWRKQYSLGGVYLDRVGAYLTDAAVLVGLGLRAADIWGTGRIDWLWAFLGTLAALGAILIKAETDLVGVARHQNGMPPVKEAASEIRSSGMALARRAAGALKFHRLILGIEATLLILVLAIVDQARGDLFFTRLGTAVLAGIALLQTLLHLVSILASSRLK
- protein production: failed

Sequence: MREYNNPSDFKSFHDFVASYMKTYSRRLEIGTFRHHKSCMRKFKEYCEGLQFHELTEDFLRDYLIYMKKTLCNADSTAQRNLSTIKIYVSAAIKKGYMENDPFKDFGVKRLEHHHHHH
- protein production: not failed

Sequence: MRFSRARTEEVLRALVHEIRAERLTFMAGSIAYHAFLSILPLLLLVLTFVQRTENVTLRASIVGIMEAVLTTQASGIIQQGLTEADASVSALGVGFLLWGSLRIFRGLDTAFSDIYETGASNTFLDQLGDGLVLLVTVAVAILSASALGSVLPETGSGPLWTVASGLVRAAGLFVVFYPMYYIFPDTDVSPLEAVPGVAFAAIGLTVAQVLFTAFKSGSTGGNIIASILVLLSWLYIIGLVILLGAAINAVLSNRSADVDIDPVVGEHSQQNTIRTTTMSREALLAELETLADRFQQGQGTITVEIADERTDIDCPETATVDRSSDVFGLDQSVALTLRWWPNEK
- protein production: failed

Sequence: MRFTNTILMTTFTALLAVALVAGCASKKKDETDPFFSKWQSLASNSTGFSPPKVVRDVKPKTLLRQEEVTAKQEEQKRPLPQMPVTLKLHNVDVGVALRSLAAAANTSIIVSPGVKGTASINVNRVPWEDVFKGILASNALDFAWRGELIQVMTLADKKAEVERELLETQRMAQQLKGRKVGPLVTSVIEVRYAEAAELKKNLEGFLSKDEQNKPVGAVVVDTHTNSLIVQAVEDDLSKIITLVNNLDKPRAQILLKAHIVEATRDTARDLGIQWGGVGRSGNMGDGNRMWVTPGGSGPTKPTDPQAGGGVPVIPPGGLSGQGFGMNFPVNKAGKTAMGSLGLMFGTIGGNMLEVQLSALQDNGKLNILSSPSISTLDNQMAFTENGEKVPYVSTNAQGDREVKFEDAVLRLEITPHVIDESNLKLKVQVKKDEVDLTRTVEGNPFIIKKQTETTLIVQDGETVVISGLTKERSSTRRQGLPYLQDVEGIGALFGNDSKANKLEDVLIFITPAILPYREETSVN
- protein production: failed

Sequence: MRGAESLVTLNHKILRPCRKLLIRITKSCPRRHNRHLKLKKASSSSSTASGNKVTKVVALFFLSFHKKKQKKEKMKRLNELRSFSHAVNDQKKKAPKQESSKKVFPSRLTMSWLGQGKGNNNNTQEVPQEHDARRDSTSAFIP
- protein production: failed

Sequence: MRGIAIIFIVLGHSIYNSGEGFPVLLENLLRGGTALFVFISGYFFHRIFYKDFDYGKFMKNKVQNVLYPFLFVSIVGLFCLSLRWVFMEHQSLEQVLLSIFYTVRNGYILYPHWYIPFIMAVFLFSPVFLWFIRCSQQMRWTLFVLSCVVAILLHRPIGNVNFIHSVVYYLPFYLIGILYSQDEHIVTRYGSILSALAGIFLVVSLVEQSYIVQHVGNYHKAPFEYNGIDWQFIQKLSLCVLVLNFCDWLSQRSRLPWLIETAEMSFAIFFIHPLFDMLFNTTATIFRYRFPPDSWVTSILFSFGIFLFLMVSSMMTARLIKKRLGNRSRLFIGW
- protein production: failed

Sequence: MRGILRMTVLAAAVFGVAGNALAEDWKLAKDEDGVKVYLSSVQGSKYKAYRGVTDIKADVATIEALQEDVKGSCKWIHACAEMKLLKQEGADAWTYSKIDMPWPVTGRDVVIHVTTEKTADGTVIRHLKADPTYIPEEKGQIRVPKLVGEWKLQPKGQGVTEVTYQVETEPGGSIPSWLANSFVVDAPLNTLKGLRSAAEKR
- protein production: failed

Sequence: MRGKQSHMSCEHYSNNCLVRFECCSSLYPCRLCHDKAEAHRANRYEVSQIVCGTCNLLQPKTQTCLQCLAAVSKYFCSKCNLWDSSDDQIFHCDGCNVCRRGDPKSSFHCDICQTCLVTRGPRDHTHVENTASGNCPICAEEMSESMEVLVLLRCGHSLHERCFNEFIKETYTCPMCSKPIGDTSIINRKVECLLGMEPPSPEQSPKNIAKCTNCNNLSKCGAIQNKCPFCGLRGVVDAAQEKNVKSQCLKPEE
- protein production: failed

Sequence: MRGLAACYSEHAIKVSDTYCSGPSNHSYISPTLPPSIPDTVTTTYRSNLPSSDKPVSVSLTWSDNLTVVISTPPKSYSVSLRKPKGSRKLTSSSGSLNAEILWDLSEAEYENNGPEPIRRFFVVVVVNSEITLGVGDVDHERDTSSSSSWRVSKTERFSGTCWLTTKAQFSDVGRKHEIQIQCGGGGGGGGEEGYLWKVKSPETMSVYVDKRKVFSVKKLKWNFRGNQTMFFDGMLIDMMWDLHDWFYKETLSSVSTSSSSKTASSSSSSSTSSSTPPCAVFMFRRRSGLDSRLWIDEDEQESEMKKNIGSRDEKHSFSLIICASKK
- protein production: failed

Sequence: MRGLSLSPVVLPEVRREAGVELRKARLEDVDAIYWLIRYWAEKGLMLVRSHSHLYENIRDFWVLEDEDGQIVGTVALHVLWRDLAEIRGLAVHPTRQGQGLGRWLVLGAEREARDLGLPRVFAWTLQVNFFRALGYRVTSR
- protein production: failed

Sequence: MRGLSRNSGAAAIFAILLILAVHNWSVAVSSQSTEFAGDFPPFETECRGTIAECSVSAALGDGGDLFYGGGEMGEEFEMDSEINRRILATRRYISYGALRRNTIPCSRRGASYYNCRRGAQANPYSRGCSAITRCRRS
- protein production: failed

Sequence: MRGPGSASVRGYGQCKDTLHTSSPFHEAPASVRRPRTTGRVHTLGIRAPPPPRSQPEFLFSGNPFAPVSSVQRDAARRVSPRIPSLDQASRRPVAKLVVPGGNGFIGTEICRVAVQNGHEVAAFGRTGRPALTPARHPWVQDVEWRAADVFAPDAWRDLLDGADAVVHTIATIREHPDRNVTFDRVNAESALRAAEAAVAADVGAVVFLSVRDKPPLVPYAFLSAKRRAERALREDHPSLRTVTLCPNLVYGARKTGTPTLAAVLNQAQGMRPHPYATAEGRPLPVEFVAAAAVQAAVTSTMEGTLTVPQIDDIGRTSGLVDPNAASTPSLAPLLVGLGGTALGAWLLRRWRAS
- protein production: failed

Sequence: MRGPLSRPVCMKLGIDFGTSNSAAAAIVDGQVVPVRFGQALQFRTTVYFPETMRDPDDFSLTPALEYEVERLIDSGRRDALAAGRTPNNDSLRRDAIRIVRRQWMEEQVREPRSSAALLQNAVYGDEALDAYFLEGEGSLVQSPKSMLGYNLHPRARQTMTGIATHVLEHIRLTASRQFDINIRHATLGRPVQFRSSIGEAGNAQALEILQTAAIAAGFDSVDFLEEPAAAAMHYHVSHDSRHDTVVVDIGGGTTDVAHASVGGSAAPQVHRAWGIARGGTDIDLALSLAAYMPLFGRGITRVPTHHYVEAAMVQDMTRQREFRLHKYQDVPAPFDRRLQALQDTGNTARLYRGVEACKIALSELDRHQDALDFIERGLGVDVQAGALVASASNYLDELEGLLAQVRTEMATAPATVFLTGGMSRAGYIRDTVAAAFPESRLVHGDPSFGVVQGLAWAAAQDARLSDG
- protein production: failed

Sequence: MRGSHHHHHHTDPALRAATLLQLHFAFNGPFGDAMAEQLKPLAESINQEPGFLWKVWTESEKNHEAGGIYLFTDEKSALAYLEKHTARLKNLGVEEVVAKVFDVNEPLSQINQAKLAGLCGR
- protein production: not failed
